Measured values from patent US20190284297A1 (NOVIMMUNE, published 2019).
Where a chain is given by its changes, count along the chain named.

B1: IgG 1D8 (antibody, V domains shown)
VH: EVQLVESGGGLVQPGGSLKLSCAASGFTFNTYAMNWVRQAPGKGLEWVGRIRSKYNNYATYYADSVKDRFTISRDDSKNTAYLQMNSLKTEDTAVYYCVRHGNFGNSYVSWFAYWGQGTLVTVSS
VL: QTVVTQEPSLTVSPGGTVTLTCRSSTGAVTTSNYANWFQQKPGQAPRGLIGGTNKRAPGTPARFSGSLLGGKAALTLSGAQPEDEAEYYCALWYDGTWVFGGGTKLTVL
notes: also called L3sp34-G1-1-R2-P1_D8
B2: IgG 1A4 (antibody, V domains shown)
VH: B1 VH
VL: B1 VL with D95K, G96Q, T97R
notes: also called L3sp34-G1-2-R2-P1_A4
B3: IgG 1A10 (antibody, V domains shown)
VH: B1 VH
VL: B1 VL with D95K, T97Y
notes: also called L3sp34-G1-2-R2-P1_A10
B4: IgG 1A11 (antibody, V domains shown)
VH: B1 VH
VL: B1 VL with T97W
notes: also called L3sp34-G1-1-R2-P1_A11
B5: IgG 1B6 (antibody, V domains shown)
VH: B1 VH
VL: B1 VL with D95A, G96N, T97R
notes: also called L3sp34-G1-1-R2-P1_B6
B6: IgG 1F8 (antibody, V domains shown)
VH: B1 VH
VL: B1 VL with T97K
notes: also called L3sp34-G1-2-R2-P1_F8

molecular target: T1, human CD3ε on T cells (Jurkat T cell line; CD4+ and CD8+ T cells from healthy human donors) (human, UniProt P07766 23-207); assay: FACS on CD4+ T cells from PBMCs of healthy donors, antibody at 0.1 µg/ml
T1 construct: whole, on cells
T1 sequence (P07766 23-207): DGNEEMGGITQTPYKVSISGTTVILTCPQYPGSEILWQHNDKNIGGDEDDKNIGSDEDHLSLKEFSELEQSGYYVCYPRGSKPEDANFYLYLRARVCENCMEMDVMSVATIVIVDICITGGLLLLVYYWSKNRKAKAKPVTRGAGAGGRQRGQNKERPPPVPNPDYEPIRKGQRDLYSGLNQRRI
Procedure: (§1) Binding was also evaluated by FACS on different cell populations including T cell lines and natural cell populations derived from healthy blood donors. First, control and antiCD3ε candidates were tested at different concentration on the human T cell line Jurkat. […] Binding to native cell populations was performed by isolating PBMCs from healthy donors and evaluating binding to CD4+ and CD8+ T cells as well as B cells.

Compared with B1, B2 is lower in “MFI on CD4+ T cells” value: 286 MFI for the first, 284 MFI for the second.

Compared with B3, B4 is higher in “MFI on CD4+ T cells” value: 96 MFI for the first, 205 MFI for the second.

Compared with B5, B6 is higher in “MFI on CD4+ T cells” value: 231 MFI for the first, 284 MFI for the second.

molecular target: T1, human CD3ε on T cells (Jurkat T cell …); assay: FACS on CD8+ T cells from PBMCs of healthy donors, antibody at 0.1 µg/ml
Procedure: as §1

Compared with B1, B2 is higher in “MFI on CD8+ T cells” value: 161 MFI for the first, 173 MFI for the second.

Going from B3 to B4, the “MFI on CD8+ T cells” value rises from 43 MFI to 119 MFI.

Compared with B5, B6 is higher in “MFI on CD8+ T cells” value: 130 MFI for the first, 157 MFI for the second.
